Experimental data from patent US7521047.
Blank lines part the entries; values can stand above or below the substance they belong to.

Columns and labels:
[1] = target: HLA-DR on RPMI-8226 cells (human); test: flow cytometry, RPMI-8226 cells stained with FITC-labelled L243 (HLA-DR expression)
[2] = target: HLA-DR on MHH-CALL-4 cells (human); test: flow cytometry, MHH-CALL-4 cells stained with FITC-labelled L243 (HLA-DR expression)
[3] = target: HLA-DR on KARPAS-299 cells (human); test: flow cytometry, KARPAS-299 cells stained with FITC-labelled L243 (HLA-DR expression)
[4] = target: HLA-DR on L1236 cells (human); test: flow cytometry, L1236 cells stained with FITC-labelled L243 (HLA-DR expression)
[5] = target: HLA-DR on MHH-PREB-1 cells (human); test: flow cytometry, MHH-PREB-1 cells stained with FITC-labelled L243 (HLA-DR expression)
[6] = target: HLA-DR (allele and form not stated); test: not stated (Z. A. Nagy, unpublished)
[7] = target: HLA-DR on L-363 cells (human); test: flow cytometry, L-363 cells stained with FITC-labelled L243 (HLA-DR expression)
[8] = target: HLA-DR on LG-2 cells (human); test: flow cytometry, LG-2 cells stained with FITC-labelled L243 (HLA-DR expression)
[9] = target: HLA-DR on KARPAS-422 cells (human); test: flow cytometry, KARPAS-422 cells stained with FITC-labelled L243 (HLA-DR expression)
[10] = target: HLA-DR on L-428 cells (human); test: flow cytometry, L-428 cells stained with FITC-labelled L243 (HLA-DR expression)
[11] = target: HLA-DR on EOL-1 cells (human); test: flow cytometry, EOL-1 cells stained with FITC-labelled L243 (HLA-DR expression)
[12] = target: HLA-DR on ARH-77 cells (human); test: flow cytometry, ARH-77 cells stained with FITC-labelled L243 (HLA-DR expression)
[13] = target: HLA-DR on BONNA-12 cells (human); test: flow cytometry, BONNA-12 cells stained with FITC-labelled L243 (HLA-DR expression)
[14] = target: HLA-DR on RAJI cells (human); test: flow cytometry, RAJI cells stained with FITC-labelled L243 (HLA-DR expression)
[15] = target: HLA-DR on LP-1 cells (human); test: flow cytometry, LP-1 cells stained with FITC-labelled L243 (HLA-DR expression)
[16] = target: HLA-DR on NALM-1 cells (human); test: flow cytometry, NALM-1 cells stained with FITC-labelled L243 (HLA-DR expression)
[17] = target: HLA-DR on HC-1 cells (human); test: flow cytometry, HC-1 cells stained with FITC-labelled L243 (HLA-DR expression)
[18] = target: HLA-DR on HD-MY-Z cells (human); test: flow cytometry, HD-MY-Z cells stained with FITC-labelled L243 (HLA-DR expression)
[19] = target: HLA-DR on KM-H2 cells (human); test: flow cytometry, KM-H2 cells stained with FITC-labelled L243 (HLA-DR expression)
[20] = target: HLA-DR on SR-786 cells (human); test: flow cytometry, SR-786 cells stained with FITC-labelled L243 (HLA-DR expression)
[21] = target: HLA-DR on HDLM-2 cells (human); test: flow cytometry, HDLM-2 cells stained with FITC-labelled L243 (HLA-DR expression)
[22] = target: HLA-DR on MN-60 cells (human); test: flow cytometry, MN-60 cells stained with FITC-labelled L243 (HLA-DR expression)
[23] = target: HLA-DR on BJAB cells (human); test: flow cytometry, BJAB cells stained with FITC-labelled L243 (HLA-DR expression)
[24] = target: HLA-DR on GRANTA-519 cells (human); test: flow cytometry, GRANTA-519 cells stained with FITC-labelled L243 (HLA-DR expression)
[25] = target: HLA-DR on EOL-1 cells (human); test: cell-based or functional assay
[26] = target: HLA-DR on SR-786 cells (human); test: cell-based or functional assay
[27] = target: HLA-DR on HD-MY-Z cells (human); test: cell-based or functional assay
[28] = target: HLA-DR on MN-60 cells (human); test: cell-based or functional assay
[29] = target: HLA-DR on MHH-CALL-4 cells (human); test: cell-based or functional assay
[30] = target: HLA-DR on RAJI cells (human); test: cell-based or functional assay
[31] = target: HLA-DR on LG-2 cells (human); test: cell-based or functional assay
[32] = target: HLA-DR on MHH-CALL-2 cells (human); test: cell-based or functional assay
[33] = target: HLA-DR on LP-1 cells (human); test: cell-based or functional assay
[34] = target: HLA-DR on HC-1 cells (human); test: cell-based or functional assay
[35] = target: HLA-DR on KM-H2 cells (human); test: cell-based or functional assay
[36] = target: HLA-DR on BJAB cells (human); test: cell-based or functional assay
[37] = target: HLA-DR on KARPAS-422 cells (human); test: cell-based or functional assay
[38] = target: HLA-DR on HDLM-2 cells (human); test: cell-based or functional assay
[39] = target: HLA-DR on L1236 cells (human); test: cell-based or functional assay
[40] = target: HLA-DR on MHH-PREB-1 cells (human); test: cell-based or functional assay
[41] = target: HLA-DR on RPMI-8226 cells (human); test: cell-based or functional assay
[42] = target: HLA-DR on DOHH-2 cells (human); test: cell-based or functional assay
[43] = target: HLA-DR on KARPAS-299 cells (human); test: cell-based or functional assay
[44] = target: HLA-DR on L-428 cells (human); test: cell-based or functional assay
[45] = target: HLA-DR on BONNA-12 cells (human); test: cell-based or functional assay
[46] = target: HLA-DR on NALM-1 cells (human); test: cell-based or functional assay
[47] = target: HLA-DR on L-363 cells (human); test: cell-based or functional assay
[48] = target: HLA-DR on GRANTA-519 cells (human); test: cell-based or functional assay
[49] = target: HLA-DR on ARH-77 cells (human); test: cell-based or functional assay
[50] = target: HLA-DR on DOHH-2 cells (human); test: flow cytometry, DOHH-2 cells stained with FITC-labelled L243 (HLA-DR expression)
[51] = target: chimeric 0401-IE class II molecule on cells of transgenic mice (human/murine chimera); test: cell-based or functional assay
[52] = target: HLA-DR on chronic lymphoid leukemia (CLL) cells of patients (human); test: cell-based or functional assay

Sequence of MS-GPC-8 IgG4 (antibody) (VH): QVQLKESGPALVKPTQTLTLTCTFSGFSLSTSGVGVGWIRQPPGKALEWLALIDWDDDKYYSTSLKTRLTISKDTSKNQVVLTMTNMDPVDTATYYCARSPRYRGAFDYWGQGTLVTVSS
Sequence of MS-GPC-8 IgG4 (antibody) (VL): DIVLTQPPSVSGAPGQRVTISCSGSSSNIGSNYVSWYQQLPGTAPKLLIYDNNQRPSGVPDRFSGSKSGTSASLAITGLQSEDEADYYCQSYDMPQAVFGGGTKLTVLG
Sequence of L243 (antibody) (VH): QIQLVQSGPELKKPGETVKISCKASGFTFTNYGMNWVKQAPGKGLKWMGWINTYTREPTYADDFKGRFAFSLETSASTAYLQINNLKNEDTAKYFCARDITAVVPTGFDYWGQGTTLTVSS
Sequence of L243 (antibody) (VL): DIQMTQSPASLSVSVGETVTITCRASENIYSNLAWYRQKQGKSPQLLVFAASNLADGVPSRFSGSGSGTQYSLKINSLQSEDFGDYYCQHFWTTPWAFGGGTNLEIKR

MFL (mean fluorescence intensity) [1]: 19 MFL
MFL (mean fluorescence intensity) [2]: 348 MFL
MFL (mean fluorescence intensity) [3]: 798 MFL
MFL (mean fluorescence intensity) [4]: 41 MFL
MFL (mean fluorescence intensity) [5]: 175 MFL
Kd [6]: 0.01 µM
MFL (mean fluorescence intensity) [7]: 49 MFL
MFL (mean fluorescence intensity) [8]: 458 MFL
MFL (mean fluorescence intensity) [9]: 211 MFL
MFL (mean fluorescence intensity) [10]: 244 MFL
MFL (mean fluorescence intensity) [11]: 536 MFL
MFL (mean fluorescence intensity) [12]: 301 MFL
MFL (mean fluorescence intensity) [13]: 2430 MFL
MFL (mean fluorescence intensity) [14]: 617 MFL
MFL (mean fluorescence intensity) [15]: 315 MFL
MFL (mean fluorescence intensity) [16]: 1080 MFL
MFL (mean fluorescence intensity) [17]: 372 MFL
MFL (mean fluorescence intensity) [18]: 79 MFL
MFL (mean fluorescence intensity) [19]: 619 MFL
MFL (mean fluorescence intensity) [20]: 142 MFL
MFL (mean fluorescence intensity) [21]: 326 MFL
MFL (mean fluorescence intensity) [22]: 1120 MFL
MFL (mean fluorescence intensity) [23]: 338 MFL
MFL (mean fluorescence intensity) [24]: 1460 MFL
MFL (mean fluorescence intensity) [50]: 444 MFL
Substance: L243 (antibody)
% Killing by mAb, 200 nM, 4 h [25]: 22%
% Killing by mAb, 200 nM, 4 h [26]: 3%
% Killing by mAb, 200 nM, 4 h [27]: 35%
% Killing by mAb, 200 nM, 4 h [28]: 46%
% Killing by mAb, 200 nM, 4 h [29]: 35%
% Killing by mAb, 200 nM, 4 h [30]: 69%
% Killing by mAb, 200 nM, 4 h [31]: 79%
% Killing by mAb, 200 nM, 4 h [32]: 5%
% Killing by mAb, 200 nM, 4 h [33]: 12%
% Killing by mAb, 200 nM, 4 h [34]: 88%
% Killing by mAb, 200 nM, 4 h [35]: 81%
% Killing by mAb, 200 nM, 4 h [36]: 53%
% Killing by mAb, 200 nM, 4 h [37]: 25%
% Killing by mAb, 200 nM, 4 h [38]: 77%
% Killing by mAb, 200 nM, 4 h [39]: 52%
% Killing by mAb, 200 nM, 4 h [40]: 3%
% Killing by mAb, 200 nM, 4 h [41]: 6%
% Killing by mAb, 200 nM, 4 h [42]: 29%
% Killing by mAb, 200 nM, 4 h [43]: 78%
% Killing by mAb, 200 nM, 4 h [44]: 82%
% Killing by mAb, 200 nM, 4 h [45]: 92%
% Killing by mAb, 200 nM, 4 h [46]: 44%
% Killing by mAb, 200 nM, 4 h [47]: 6%
% Killing by mAb, 200 nM, 4 h [48]: 83%
% Killing by mAb, 200 nM, 4 h [49]: 88%

IC50 of inhibition of IL-2 secretion from T-Hyb 1 cells [51]: 0.011 µM
Maximum inhibition(%) of IL-2 secretion [51]: 100%
Substance: MS-GPC-8 IgG4 (antibody)
% Killing by mAb, 50 nM, 4 h [25]: 36%
% Killing by mAb, 50 nM, 4 h [26]: 1%
% Killing by mAb, 50 nM, 4 h [27]: 49%
% Killing by mAb, 50 nM, 4 h [28]: 71%
% Killing by mAb, 50 nM, 4 h [29]: 43%
% Killing by mAb, 50 nM, 4 h [33]: 61%
% Killing by mAb, 50 nM, 4 h [35]: 75%
% Killing by mAb, 50 nM, 4 h [36]: 49%
% Killing by mAb, 50 nM, 4 h [37]: 51%
% Killing by mAb, 50 nM, 4 h [39]: 44%
viable CLL cells after 24 hours, 100 nM IgG (told for all three human IgGs) [52]: 33%
viable activated CLL cells after 4 hours, 100 nM IgG (average for all patient samples and antibodies) [52]: 24%
% Killing by mAb, 50 nM, 4 h [40]: 2%
% Killing by mAb, 50 nM, 4 h [41]: 14%
% Killing by mAb, 50 nM, 4 h [42]: 58%
% Killing by mAb, 50 nM, 4 h [47]: 26%
% Killing by mAb, 50 nM, 4 h [48]: 76%
